Results published in patent US20230272055A1, “ANTI-MUTANT CALRETICULIN (CALR) ANTIBODIES AND USES THEREOF” (Incyte Corporation, priority 2021, published 2023).

Test system: BaF3 cells expressing MPL/mutCALR Type 1
Experiment: Example 16 inhibition of cell proliferation, CellTiter-Glo 72 hours
Format: cell-based
Procedure: The ability of the five antibodies shown here to inhibit cell proliferation was tested. Inhibition of cell proliferation was assessed using engineered BaF3 cells expressing MPL/mutCALR Type 1. Cells were plated at 5,000 cells per well in RPMI 1640+2% FBS, antibodies were added and incubated for 72 hours, followed by assessment of cell viability using the CellTiter-Glo Luminescent Cell Viability Assay (Promega, Madison, Wis.) and Top Count (Perkin Elmer, Boston, Mass.) or Pherastar (BMG Labtech, Ortenberg, Germany) for luminescence quantification. […] The data shown in FIGS. 21A and 21B were compiled from different experiments.

IC50 for anti-mutCALR antibody mediated inhibition of cell proliferation (BaF3 cells expressing MPL/mutCALR Type 1, 72 hours, CellTiter-Glo): >60 mg/L
B1: AB4: anti-mutCALR antibody including VH and VL regions of antibody 8B2-H6 from WO2016087514 fused to human constant regions (antibody)
heavy: EVQLKQSGPELVKTGASVKISCKASGYSFTGYYIHWVKQSHGKSLEWIGYISCYNGASSYNQKFKGKATFTVDTSSSTAYMQFNSLTSGDSAVYYCASSMDYWGQGTSVTVSSASTKGPSVFPLAPSKSTSGGTAALGCLVKDYFPEPVTVSWNSGALTSGVHTFPAVLQSSGLYSLSSVVTVPSSSLGTQTYICNVNHKPSNTKVDKKVEPKSCDKTHTCPPCPAPELLGGPSVFLFPPKPKDTLMISRTPEVCVVVDVSHEDPEVKFNWYVDGVEVHNAKTKPREEQYNSTYRVVSVLTVLHQDWLNGKEYKCKVSNKALPAPIEKTISKAKGQPREPQVYTLPPSREEMTKNQVSLTCLVKGFYPSDIAVEWESNGQPNNYKTTPPVLDSDGSFFLYSKLTVDKSRWQQGNVFSCSVMHEALHNHYTQKSLSLSPG
light: DVVMTQTPLTLSVTIGQPASISCKSSQSLLDSDGKTYLNWLLQRPGQSPKRLIYLVSKLDSGVPDRFTGSGSGTDFTLKISRVEAEDLGVYHCWQGTHFPYTFGGGTKLEIKRTVAAPSVFIFPPSDQLKSGTASVVCLLNNFYPREAKVQWKVDNALQSGNSQESVTEQDSKDSTYSLSSTLTLSKADYEKHKVYACEVTHQGLSSPVTKSFNRGEC
inhibition of cell proliferation (72 hours, FIG. 21B, Table 16): no functional activity
